Assay results from publication PMC4821807, “Estrogen receptor alpha somatic mutations Y537S and D538G confer breast cancer endocrine resistance by stabilizing the activating function-2 binding conformation” (eLife, 2016).
Like-named read-outs stand apart in the source and are kept apart here.

Key:
Y537S mutant ERα = test system: Y537S mutant ERα; parameters: method as in Toy et al., 2013; conditions: breast cancer cells, ref Toy et al., 2013; cited from earlier work
D538G mutant ERα = test system: D538G mutant ERα; parameters: method as in Toy et al., 2013; conditions: breast cancer cells, ref Toy et al., 2013; cited from earlier work
[1] = molecular target: D538G estrogen receptor α ligand-binding domain (ERα amino acids 304–554), 6×His fusion, biotin-labelled at C417 (human) (UniProt P03372); test: FRET or BRET; time-resolved FRET, SRC titration, ER pre-saturated with 1 µM E2: SRC3-fluorescein titrated from 3.2×10^-7 to 3.2×10^-12 M into 1 nM biotinylated ERα LBD on 0.25 nM streptavidin-terbium
[2] = molecular target: Y537S estrogen receptor α ligand-binding domain (ERα amino acids 304–554), 6×His fusion, biotin-labelled at C417 (human) (UniProt P03372); test: as above
[3] = molecular target: wild type estrogen receptor α ligand-binding domain (ERα amino acids 304–554), 6×His fusion, biotin-labelled at C417 (human) (UniProt P03372); test: as above
[4] = molecular target: D538G estrogen receptor α ligand-binding domain (ERα amino acids 304–554), 6×His fusion, biotin-labelled at C417 (human) (UniProt P03372); test: FRET or BRET; time-resolved FRET, SRC titration, no ligand (apo): SRC3-fluorescein titrated from 3.2×10^-7 to 3.2×10^-12 M into 1 nM biotinylated ERα LBD on 0.25 nM streptavidin-terbium; 96-well plates
[5] = molecular target: Y537S estrogen receptor α ligand-binding domain (ERα amino acids 304–554), 6×His fusion, biotin-labelled at C417 (human) (UniProt P03372); test: as above
[6] = molecular target: the molecule itself; test: crystal structure; D538G ERα LBD with 1 mM E2 and a 2.5-fold molar excess of GRIP peptide; hanging drop, 25% PEG 3,350, 200 mM MgCl2, 100 mM Tris pH 8.5, 1 mM phenylalanine
D538G ERα LBD = D538G ERα LBD (Homo sapiens, UniProt P03372, D538G, form not given); assay type: binding; conditions: for Kd: read-out: SRC-3 NRD Kd
Description: (§1) While bound to the Ni-NTA-agarose resin (Qiagen Inc., Santa Clarita, CA), the ERs were labeled with MAL-dPEG4-biotin (Quanta BioDesign, Powell, OH), site-specifically at C417. The SRC3-NRD construct has 4 cysteines and was labeled non-specifically, also while on the resin, with 5-iodoacetamido fluorescein (Molecular Probes, Invitrogen, Eugene, OR).
(§2) Diffusion-enhanced FRET was determined by a parallel incubation without biotinylated ER-LBD and subtracted as a background signal. […] The data, representing 2–3 replicate experiments, each with duplicate points, were analyzed using GraphPad Prism 4 and are expressed as the EC50 in nM.

WT ERα LBD = WT ERα LBD (Homo sapiens, UniProt P03372); assay type: binding; conditions: for SRC-3 NRD Kd: WT apo (absence of E2)
Description: as §1, §2

Y537S ERα LBD = Y537S ERα LBD (Homo sapiens, UniProt P03372, Y537S, form not given); assay type: binding; conditions: for Kd: read-out: SRC-3 NRD Kd
Description: as §1, §2

For `CC/C(=C(\c1ccc(O)cc1)c1ccc(OCCN(C)C)cc1)c1ccccc1` [TOT, 4-hydroxytamoxifen], the “ablation of transcriptional activity of the mutant” value (“ablation” for short) (Y537S mutant ERα) is listed as “could not” and the “ablation” value (D538G mutant ERα) is listed as “could not”.

In the case of “steroid receptor coactivator 3 nuclear receptor domain (amino acids 627–829), fluorescein-labelled (from UniProt Q9Y6Q9 627-829) (domain or fragment)”, the Kd [1] is reported as 3.65 nM, the Kd [2] is reported as 0.59 nM and the Kd [3] is reported as 2.67 nM. For the same molecule, the Kd [4] was 151 nM and the Kd [5] was 13.6 nM.

In the case of `C[C@]12CC[C@@H]3c4ccc(O)cc4C[C@@H](CCCCCCCCC[S+]([O-])CCCC(F)(F)C(F)(F)F)[C@H]3[C@@H]1CC[C@@H]2O` (stereo partly shown) [fulvestrant], the “ablation” value (Y537S mutant ERα) is given as “completely ablate” and the “ablation” value (D538G mutant ERα) is given as “completely ablate”.

B1: ERα LBD D538G mutant (crystallisation construct, 6×His-TEV tag removed) (domain or fragment, human)
chain: KRSKKNSLALSLTADQMVSALLDAEPPILYSEYDPTRPFSEASMMGLLTNLADRELVHMINWAKRVPGFVDLTLHDQVHLLECAWLEILMIGLVWRSMEHPGKLLFAPNLLLDRNQGKCVEGMVEIFDMLLATSSRFRMMNLQGEEFVCLKSIILLNSGVYTFLSSTLKSLEEKDHIHRVLDKITDTLIHLMAKAGLTLQQQHQRLAQLLLILSHIRHMSNKGMEHLYSMKCKNVVPLYGLLLEMLDAHRLHAPTS
notes: Unresolved residues were not included in the deposited structures; also called apo D538G; D538G-E2; source: E. coli BL21 (DE3), purified (Ni-NTA, TEV cleavage, Resource Q ion exchange)
B1: binds [6].

B2: SRC3 NRD: steroid receptor coactivator 3 nuclear receptor domain, human, amino acids 627–829, fluorescein labeled (protein)
chain: CSSDDRGHSSLTNSPLDSSCKESSVSVTSPSGVSSSTSGGVSSTSNMHGSLLQEKHRILHKLLQNGNSPAEVAKITAEATGKDTSSITSCGDGNVVKQEQLSPKKKENNALLRYLLDRDDPSDALSKELQPQVEGVDNKMSQCTSSTIPSSSQEKDPKIKTETSEEGSGDLDNLDAILGDLTSSDFYNNSISSNGSHLGTKQQ
modifications: 5-iodoacetamido fluorescein on cysteines, non-specific (4 cysteines; an average of 1.8–2 fluorescein molecules attached); left off: His tag (inferred from the labelling on the resin), end not stated,
For B2, the Kd (D538G ERα LBD; D538G apo (absence of E2)) was 151 ± 20 nM, the Kd (D538G ERα LBD; D538G pre-saturated with E2 (1 µM ligand)) was 3.65 ± 0.4 nM and the “SRC3 binding curve plateau, of the maximum” value (D538G ERα LBD; D538G, absence of E2) was “approximately 60%”. The “SRC-3 NRD Kd” value (WT ERα LBD) was “no binding was detected”, the “SRC-3 NRD Kd” value (WT ERα LBD; listed as SRC-3 NRD) was “No Recruitment” and the Kd (WT ERα LBD; WT saturated with E2 (1 µM ligand), read-out: SRC-3 NRD Kd) was 2.67 ± 0.5 nM. The Kd (Y537S ERα LBD; Y537S apo (absence of E2)) was 13.6 ± 2 nM, the Kd (Y537S ERα LBD; Y537S pre-saturated with E2 (1 µM ligand)) was 0.59 ± 0.1 nM and the “SRC3 binding curve plateau, of the maximum” value (Y537S ERα LBD; Y537S, absence of E2) was “approximately 60%”.
